Data set [1] has as its target S1PR2 ECL2 peptide ECL2 (Homo sapiens) (UniProt O95136). The data set is described as follows: MST. The note with it: cited from earlier work.
The target of data set [2] is S1PR2 ECL3 peptide ECL3 (Homo sapiens) (UniProt O95136). As to the kind of experiment: MST. The note with it: cited from earlier work.
Data set [3] concerns the molecule itself. As to the kind of experiment: pulsed field gradient NMR diffusion; Nogo-A-Δ20 at 30 μM or 560 μM, without or with TCEP (5 mM or 2 mM), pH 7.4, 6°C; diffusion coefficients compared.

Regarding Nogo-A-Δ20 Δ20 (from UniProt Q9JK11), the Kd (in general, the constant that tells how readily two partners part at equilibrium) in data set [1] is 280 nM; in data set [2], 350 nM.

B1: Nogo-A-Δ20 (residues 544–725 of the rat Nogo-A sequence) (domain or fragment, UniProt Q9JK11-1 544-725, looked up)
chain: TGTKIAYETKVDLVQTSEAIQESLYPTAQLCPSFEEAEATPSPVLPDIVMEAPLNSLLPSAGASVVQPSVSPLEAPPPVSYDSIKLEPENPPPYEEAMNVALKALGTKEGIKEPESFNAAVQETEAPYISIACDLIKETKLSTEPSPDFSNYSEIAKFEKSVPEHAELVEDSSPESEPVDLF
notes: Nogo-A (reticulon 4-A), rat, 1163 residues; Nogo-A-Δ20 region, residues 544-725 (182 residues), numbered as in the rat Nogo-A protein; the T7-tag lies between the N-terminal His6-tag and Nogo-A-Δ20; The N-terminal His6-tag was removed with thrombin; also called 15N-labelled Nogo-A-Δ20; [13C, 15N]-Nogo-A-Δ20; not shown: His6, N-terminal, cleaved; T7-tag, N-terminal, kept; His6, C-terminal, kept
With B1, in data set [3], the binding result is given as “binds”.

Source of the values: paper PMC5017703, “The Neurite Outgrowth Inhibitory Nogo-A-Δ20 Region Is an Intrinsically Disordered Segment Harbouring Three Stretches with Helical Propensity” (PLoS ONE, 2016).
